This note sets out measurements from the supplement of paper PMC11246515.

The nature of the data set: total protein half-life in vivo (active degradation + dilution); higher = more stable protein.
The mark [1] stands for this setting: E. coli NCM3722 delta-clpP delta-lon delta-hslV, growth: N-lim chemostat, doubling time 6 h.
Where [2] appears, read: E. coli NCM3722 delta-clpP, growth: N-lim chemostat, doubling time 6 h.
Setting [3] is: E. coli NCM3722 delta-hslV, growth: N-lim chemostat, doubling time 6 h.
Setting [4] is: E. coli NCM3722 delta-lon, growth: N-lim chemostat, doubling time 6 h.
The mark [5] stands for this setting: E. coli NCM3722 delta-smpB, growth: N-lim chemostat, doubling time 6 h.
[6] abbreviates: wild type E. coli NCM3722, growth: C-lim chemostat, doubling time 3 h.
Setting [7] is: wild type E. coli NCM3722, growth: C-lim chemostat, doubling time 6 h.
Setting [8] is: wild type E. coli NCM3722, growth: C-lim chemostat, doubling time 12 h.
Setting [9] is: wild type E. coli NCM3722, growth: N-lim chemostat, doubling time 6 h.
Setting [10] is: wild type E. coli NCM3722, growth: N-lim chemostat, doubling time 12 h.
[11] abbreviates: wild type E. coli NCM3722, growth: P-lim chemostat, doubling time 6 h.
The mark [12] stands for this setting: wild type E. coli NCM3722, growth: P-lim chemostat, doubling time 12 h.

± gives the standard deviation of the averaged measurements.

Consider “MAQVAIITASDSGIGKECALLLAQQGFDIGITWHSDEEGAKDTAREVVSHGVRAEIVQLDLGNLPEGALALEKLIQRLGRIDVLVNNAGAMTKAPFLDMAFDEWRKIFTVDVDGAFLCSQIAARQMVKQGQGGRIINITSVHEHTPLPDASAYTAAKHALGGLTKAMALELVRHKILVNAVAPGAIATPMNGMDDSDVKPDAEPSIPLRRFGATHEIASLVVWLCSEGANYTTGQSLIVDGGFMLANPQFNPE”, for which the “total protein half-life in vivo” value under setting [1] was found to be 5.0837 ± 0.0019 h; the “total protein half-life in vivo” value under setting [2] amounted to 4.64 ± 0.2 h; the “total protein half-life in vivo” value under setting [3] amounted to 5.14 ± 0.54 h; the “total protein half-life in vivo” value under setting [4] came to 4.36 ± 0.089 h; the “total protein half-life in vivo” value under setting [5] worked out at 4.64 ± 0.24 h; the “total protein half-life in vivo” value under setting [6] stood at 2.863 ± 0.007 h. The “total protein half-life in vivo” value amounted to 5.19 ± 0.38 h under setting [7]; 11 ± 0.19 h under setting [8]; 4.81 ± 0.42 h under setting [9]; 7.86 ± 0.13 h under setting [10]; 5.6 ± 0.22 h under setting [11]; 10.9 ± 0.34 h under setting [12].

Turning to “MAELLLGVNIDHIATLRNARGTAYPDPVQAAFIAEQAGADGITVHLREDRRHITDRDVRILRQTLDTRMNLEMAVTEEMLAIAVETKPHFCCLVPEKRQEVTTEGGLDVAGQRDKMRDACKRLADAGIQVSLFIDADEEQIKAAAEVGAPFIEIHTGCYADAKTDAEQAQELARIAKAATFAASLGLKVNAGHGLTYHNVKAIAAIPEMHELNIGHAIIGRAVMTGLKDAVAEMKRLMLEARG [P0A794]”, the “total protein half-life in vivo” value is, setting by setting: under setting [1], 5.813 ± 0.038 h; under setting [2], 5.468 ± 0.049 h; under setting [3], 5.95 ± 0.48 h; under setting [4], 5.61 ± 0.29 h; under setting [5], 5.4 ± 0.14 h; under setting [6], 3.17 ± 0.12 h. The “total protein half-life in vivo” value runs as follows: under setting [7], 5.5 ± 0.1 h; under setting [8], 11.7 ± 0.53 h; under setting [9], 5.9 ± 0.39 h; under setting [10], 9.84 ± 0.17 h; under setting [11], 6.06 ± 0.43 h.

“MKLSRRSFMKANAVAAAAAAAGLSVPGVARAVVGQQEAIKWDKAPCRFCGTGCGVLVGTQQGRVVACQGDPDAPVNRGLNCIKGYFLPKIMYGKDRLTQPLLRMKNGKYDKEGEFTPITWDQAFDVMEEKFKTALKEKGPESIGMFGSGQWTIWEGYAASKLFKAGFRSNNIDPNARHCMASAVVGFMRTFGMDEPMGCYDDIEQADAFVLWGANMAEMHPILWSRITNRRLSNQNVTVAVLSTYQHRSFELADNGIIFTPQSDLVILNYIANYIIQNNAINQDFFSKHVNLRKGATDIGYGLRPTHPLEKAAKNPGSDASEPMSFEDYKAFVAEYTLEKTAEMTGVPKDQLEQLAQLYADPNKKVISYWTMGFNQHTRGVWANNLVYNLHLLTGKISQPGCGPFSLTGQPSACGTAREVGTFAHRLPADMVVTNEKHRDICEKKWNIPSGTIPAKIGLHAVAQDRALKDGKLNVYWTMCTNNMQAGPNINEERMPGWRDPRNFIIVSDPYPTVSALAADLILPTAMWVEKEGAYGNAERRTQFWRQQVQAPGEAKSDLWQLVQFSRRFKTEEVWPEDLLAKKPELRGKTLYEVLYATPEVSKFPVSELAEDQLNDESRELGFYLQKGLFEEYAWFGRGHGHDLAPFDDYHKARGLRWPVVNGKETQWRYSEGNDPYVKAGEGYKFYGKPDGKAVIFALPFEPAAEAPDEEYDLWLSTGRVLEHWHTGSMTRRVPELHRAFPEAVLFIHPLDAKARDLRRGDKVKVVSRRGEVISIVETRGRNRPPQGLVYMPFFDAAQLVNKLTLDATDPLSKETDFKKCAVKLEKV”: the “total protein half-life in vivo” value under setting [1] amounted to 4.71 h; the “total protein half-life in vivo” value under setting [3] is 5.32 ± 0.18 h; the “total protein half-life in vivo” value under setting [4] was found to be 3.56 ± 0.76 h; the “total protein half-life in vivo” value under setting [5] was 3.46 ± 0.36 h; the “total protein half-life in vivo” value under setting [6] is 2.03 ± 0.31 h; the “total protein half-life in vivo” value under setting [7] was found to be 4.52 ± 0.7 h. Further, the “total protein half-life in vivo” value by setting is: under setting [8], 8.61 ± 1.2 h; under setting [9], 4.268 ± 0.041 h; under setting [10], 5.85 ± 2.3 h; under setting [11], 3.574 ± 0.034 h; under setting [12], greater than 16 h.

Consider “MSAQPVDIQIFGRSLRVNCPPDQRDALNQAADDLNQRLQDLKERTRVTNTEQLVFIAALNISYELAQEKAKTRDYAASMEQRIRMLQQTIEQALLEQGRITEKTNQNFE [P0ADS2]”, for which the “total protein half-life in vivo” value runs as follows: under setting [2], greater than 8 h; under setting [3], 6.14 ± 0.47 h; under setting [4], 6.82 ± 0.47 h; under setting [5], 5.21 ± 0.4 h; under setting [6], 3.87 h; under setting [7], 6.05 ± 0.48 h. Moreover, the “total protein half-life in vivo” value came to 10.5 h under setting [8]; 4.5 ± 0.25 h under setting [9]; 9.14 ± 1.6 h under setting [10]; 5.16 ± 0.74 h under setting [11]; 10.8 ± 1 h under setting [12].

For the sequence “MVIGPFINASAVLLGGVLGALLSQRLPERIRVSMTSIFGLASLGIGILLVVKCANLPAMVLATLLGALIGEICLLEKGVNTAVAKAQNLFRHSRKKPAHESFIQNYVAIIVLFCASGTGIFGAMNEGMTGDPSILIAKSFLDFFTAMIFACSLGIAVSVISIPLLIIQLTLAWAAALILPLTTPSMMADFSAVGGLLLLATGLRICGIKMFPVVNMLPALLLAMPLSAAWTAWFA”, the “total protein half-life in vivo” value is, setting by setting: under setting [2], 6.45 h; under setting [10], 10.8 h.

For “MSWIERIKSNITPTRKASIPEGVWTKCDSCGQVLYRAELERNLEVCPKCDHHMRMTARNRLHSLLDEGSLVELGSELEPKDVLKFRDSKKYKDRLASAQKETGEKDALVVMKGTLYGMPVVAAAFEFAFMGGSMGSVVGARFVRAVEQALEDNCPLICFSASGGARMQEALMSLMQMAKTSAALAKMQERGLPYISVLTDPTMGGVSASFAMLGDLNIAEPKALIGFAGPRVIEQTVREKLPPGFQRSEFLIEKGAIDMIVRRPEMRLKLASILAKLMNLPAPNPEAPREGVVVPPVPDQEPEA [P0A9Q5]”, the “total protein half-life in vivo” value under setting [1] worked out at 5.95 ± 0.21 h; the “total protein half-life in vivo” value under setting [2] amounted to 6.46 ± 0.77 h; the “total protein half-life in vivo” value under setting [3] came to 6.167 ± 0.012 h; the “total protein half-life in vivo” value under setting [4] was 5.92 ± 0.97 h; the “total protein half-life in vivo” value under setting [5] was 5.66 ± 0.42 h; the “total protein half-life in vivo” value under setting [6] is 3.03 ± 0.31 h. Further, the “total protein half-life in vivo” value under setting [7] worked out at 6.15 ± 0.42 h; the “total protein half-life in vivo” value under setting [8] was determined as 11.2 ± 0.44 h; the “total protein half-life in vivo” value under setting [9] is 6.06 ± 0.44 h; the “total protein half-life in vivo” value under setting [10] is 12.1 ± 0.061 h; the “total protein half-life in vivo” value under setting [11] stood at 5.81 ± 0.093 h; the “total protein half-life in vivo” value under setting [12] came to 12.3 ± 0.26 h.

Turning to “MDTPRPQLLDFQFHQNNDSFTLHFQQRLILTHSKDNPCLWIGSGIADIDMFRGNFSIKDKLQEKIALTDAIVSQSPDGWLIHFSRGSDISATLNISADDQGRLLLELQNDNLNHNRIWLRLAAQPEDHIYGCGEQFSYFDLRGKPFPLWTSEQGVGRNKQTYVTWQADCKENAGGDYYWTFFPQPTFVSTQKYYCHVDNSCYMNFDFSAPEYHELALWEDKATLRFECADTYISLLEKLTALLGRQPELPDWIYDGVTLGIQGGTEVCQKKLDTMRNAGVKVNGIWAQDWSGIRMTSFGKRVMWNWKWNSENYPQLDSRIKQWNQEGVQFLAYINPYVASDKDLCEEAAQHGYLAKDASGGDYLVEFGEFYGGVVDLTNPEAYAWFKEVIKKNMIELGCGGWMADFGEYLPTDTYLHNGVSAEIMHNAWPALWAKCNYEALEETGKLGEILFFMRAGSTGSQKYSTMMWAGDQNVDWSLDDGLASVVPAALSLAMTGHGLHHSDIGGYTTLFEMKRSKELLLRWCDFSAFTPMMRTHEGNRPGDNWQFDGDAETIAHFARMTTVFTTLKPYLKEAVALNAKSGLPVMRPLFLHYEDDAHTYTLKYQYLLGRDILVAPVHEEGRSDWTLYLPEDNWVHAWTGEAFRGGEVTVNAPIGKPPVFYRADSEWAALFASLKSI”, the “total protein half-life in vivo” value by setting is: under setting [1], 5.5 h; under setting [2], 4.66 ± 0.079 h; under setting [3], 4.79 ± 0.52 h; under setting [5], 4.78 ± 0.19 h; under setting [6], 3.06 ± 0.37 h; under setting [8], 12.6 ± 3.2 h. The “total protein half-life in vivo” value is, setting by setting: under setting [9], 4.02 h; under setting [10], 7.22 h; under setting [11], 5.4 ± 0.092 h; under setting [12], 10.4 ± 0.25 h.
